Earlier results on one substance are cited in article PMC2949527.

In general, Kd refers to the equilibrium constant for the complex coming apart.

The target of the data set is RFX5(25-90)2·RFXAP(214-272) complex 25-90 + 214-272 (Homo sapiens) (UniProt P48382).
RFX5(25-90)2·RFXAP(214-272) complex 25-90 + 214-272 (Homo sapiens), sequence (P48382 2-616, chain 1 of 2): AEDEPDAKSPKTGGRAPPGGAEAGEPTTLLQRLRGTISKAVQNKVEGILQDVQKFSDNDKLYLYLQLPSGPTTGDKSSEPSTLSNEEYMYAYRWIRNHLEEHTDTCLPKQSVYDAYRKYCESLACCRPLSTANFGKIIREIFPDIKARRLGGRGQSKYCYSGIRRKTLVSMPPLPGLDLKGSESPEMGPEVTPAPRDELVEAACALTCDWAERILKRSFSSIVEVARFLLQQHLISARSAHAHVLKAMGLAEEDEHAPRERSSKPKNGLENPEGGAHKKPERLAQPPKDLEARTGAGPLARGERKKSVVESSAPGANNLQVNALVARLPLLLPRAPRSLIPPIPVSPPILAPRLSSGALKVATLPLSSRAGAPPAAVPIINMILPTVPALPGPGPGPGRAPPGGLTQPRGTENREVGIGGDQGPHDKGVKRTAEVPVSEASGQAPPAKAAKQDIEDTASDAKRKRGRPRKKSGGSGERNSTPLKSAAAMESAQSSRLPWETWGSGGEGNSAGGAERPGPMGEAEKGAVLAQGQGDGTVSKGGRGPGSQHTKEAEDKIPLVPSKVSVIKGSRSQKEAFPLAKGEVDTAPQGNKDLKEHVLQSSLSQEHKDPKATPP
RFX5(25-90)2·RFXAP(214-272) complex 25-90 + 214-272 (Homo sapiens), sequence (O00287 whole entry, chain 2 of 2, further chain): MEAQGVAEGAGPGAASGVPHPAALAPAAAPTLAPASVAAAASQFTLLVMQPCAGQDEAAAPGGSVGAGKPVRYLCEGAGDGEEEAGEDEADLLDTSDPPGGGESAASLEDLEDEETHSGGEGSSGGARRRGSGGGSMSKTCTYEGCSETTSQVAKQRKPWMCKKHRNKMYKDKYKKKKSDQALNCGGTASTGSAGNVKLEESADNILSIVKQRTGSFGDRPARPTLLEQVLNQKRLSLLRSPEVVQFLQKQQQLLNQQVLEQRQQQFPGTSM

RFXB, sequence (O14593 whole entry): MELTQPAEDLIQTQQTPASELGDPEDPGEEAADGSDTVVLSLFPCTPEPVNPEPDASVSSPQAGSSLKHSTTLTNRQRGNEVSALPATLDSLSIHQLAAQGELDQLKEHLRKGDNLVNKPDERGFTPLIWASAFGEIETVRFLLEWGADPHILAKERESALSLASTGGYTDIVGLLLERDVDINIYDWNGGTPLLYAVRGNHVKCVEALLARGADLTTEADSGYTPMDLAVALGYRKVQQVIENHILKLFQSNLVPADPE

Regarding RFXB (from UniProt O14593), the Kd was 0.076 µM.
